The target in test [1] is human B1R (B1R-FLAG vector) (human) (UniProt P46663). Nature of the test: radioligand binding; competition of 1 nM [^3H]Lys-des-Arg^9-BK binding to HEK 293a cells transiently expressing human B1R (B1R-FLAG vector); one-site competition fit.
The target of another test is human recombinant ACE (Homo sapiens, UniProt P12821). As to the kind of experiment: radioligand binding; competition of 2 nM [^3H]enalaprilat binding to HEK 293a cells transiently expressing human recombinant ACE by BK and analogs; one-site competition fit.
For test [2], the target named is rabbit B2R-green fluorescent protein (rabbit) (UniProt Q28642). Nature of the test: radioligand binding; competition of 3 nM [^3H]BK binding to adherent intact HEK 293 cells stably expressing rabbit B2R-GFP by unlabeled peptides; 0 °C; peptidase inhibitors that included captopril; one-site competition fit.
Test [3] has as its target endogenous B2 receptor of the human umbilical vein (human (endogenous in umbilical vein)) (UniProt P30411).

A value given as a limit tells only on which side of the number the result lay.

Three substances from PMC3945637 (Frontiers in Pharmacology, 2014) can be followed below.

Chain of human recombinant ACE (P12821 30-1306): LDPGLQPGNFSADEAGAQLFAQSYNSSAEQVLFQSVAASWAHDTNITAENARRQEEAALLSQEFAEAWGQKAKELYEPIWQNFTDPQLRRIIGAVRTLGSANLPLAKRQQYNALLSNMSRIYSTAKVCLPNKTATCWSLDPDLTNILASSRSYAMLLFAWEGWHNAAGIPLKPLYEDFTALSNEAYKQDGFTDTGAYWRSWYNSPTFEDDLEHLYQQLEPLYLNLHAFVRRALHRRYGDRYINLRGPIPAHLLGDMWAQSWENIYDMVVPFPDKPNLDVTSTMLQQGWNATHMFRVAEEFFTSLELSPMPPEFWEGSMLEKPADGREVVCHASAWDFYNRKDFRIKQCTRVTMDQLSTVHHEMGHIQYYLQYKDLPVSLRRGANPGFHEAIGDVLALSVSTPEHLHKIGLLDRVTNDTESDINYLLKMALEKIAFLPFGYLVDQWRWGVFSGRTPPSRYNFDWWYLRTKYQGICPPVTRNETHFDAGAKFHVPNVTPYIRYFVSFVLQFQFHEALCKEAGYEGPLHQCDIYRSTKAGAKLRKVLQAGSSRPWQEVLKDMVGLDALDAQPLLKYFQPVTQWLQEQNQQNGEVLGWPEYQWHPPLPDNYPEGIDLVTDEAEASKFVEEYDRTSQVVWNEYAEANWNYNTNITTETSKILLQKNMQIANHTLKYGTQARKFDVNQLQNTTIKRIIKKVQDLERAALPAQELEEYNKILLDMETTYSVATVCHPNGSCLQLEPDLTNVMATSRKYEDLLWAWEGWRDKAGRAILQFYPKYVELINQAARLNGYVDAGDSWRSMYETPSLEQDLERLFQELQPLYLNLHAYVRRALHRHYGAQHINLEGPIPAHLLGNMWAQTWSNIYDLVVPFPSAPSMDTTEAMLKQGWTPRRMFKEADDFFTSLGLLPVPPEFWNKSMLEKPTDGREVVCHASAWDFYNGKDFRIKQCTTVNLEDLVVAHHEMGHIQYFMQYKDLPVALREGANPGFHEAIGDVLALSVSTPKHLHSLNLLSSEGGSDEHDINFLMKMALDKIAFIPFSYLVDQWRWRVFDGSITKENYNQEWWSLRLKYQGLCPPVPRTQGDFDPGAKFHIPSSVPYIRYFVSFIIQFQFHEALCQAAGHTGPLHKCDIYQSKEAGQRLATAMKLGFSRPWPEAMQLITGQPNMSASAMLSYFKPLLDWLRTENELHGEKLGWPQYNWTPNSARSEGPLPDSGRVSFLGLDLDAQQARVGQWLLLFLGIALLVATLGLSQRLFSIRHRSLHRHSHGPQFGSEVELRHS

In the case of BK-Ala-Pro (peptide), the log(IC50) was above -5 log M in test [1], -5.46 log M in the test with human recombinant ACE and -5.11 log M in test [2]. In test [3], this substance registered a log(EC50) of contraction of the human isolated umbilical vein, with ACE blocked by enalaprilat 1 μM, Figure 3D of -5.55 log M.
On to BK-His-Leu (peptide), for which the values for the log(IC50) (in test [1]; with human recombinant ACE; in test [2]) were above -5 log M, -5.28 log M and -5.24 log M, respectively. Further, the log(EC50) of contraction of the human isolated umbilical vein, with ACE blocked by enalaprilat 1 μM, Figure 3C in test [3] was -5.34 log M.
For BK-Ser-Tyr (peptide), the log(IC50) was above -5 log M in test [1], -5.21 log M with human recombinant ACE and -5.79 log M in test [2]. The log(EC50) of contraction of the human isolated umbilical vein, with ACE blocked by enalaprilat 1 μM, Figure 3B in test [3] was -6.32 log M.
